Among the data in patent US20200016266A1 are EC50 (read off the curve) values, retold here.

In this experiment the target is recombinant extracellular domain of human VEGFR2 (rhVEGFR2), expressed in human cells (Sino Biological Inc.) (human) (UniProt P35968). Briefly: FRET fluorescence spectroscopy, 0.5 µM 488-VEGFR2 titrated with 594-Gal1, emission at 518 nm.
recombinant extracellular domain of human VEGFR2 (rhVEGFR2), expressed in human cells (Sino Biological Inc.) (human), sequence (P35968 20-764 limits assumed): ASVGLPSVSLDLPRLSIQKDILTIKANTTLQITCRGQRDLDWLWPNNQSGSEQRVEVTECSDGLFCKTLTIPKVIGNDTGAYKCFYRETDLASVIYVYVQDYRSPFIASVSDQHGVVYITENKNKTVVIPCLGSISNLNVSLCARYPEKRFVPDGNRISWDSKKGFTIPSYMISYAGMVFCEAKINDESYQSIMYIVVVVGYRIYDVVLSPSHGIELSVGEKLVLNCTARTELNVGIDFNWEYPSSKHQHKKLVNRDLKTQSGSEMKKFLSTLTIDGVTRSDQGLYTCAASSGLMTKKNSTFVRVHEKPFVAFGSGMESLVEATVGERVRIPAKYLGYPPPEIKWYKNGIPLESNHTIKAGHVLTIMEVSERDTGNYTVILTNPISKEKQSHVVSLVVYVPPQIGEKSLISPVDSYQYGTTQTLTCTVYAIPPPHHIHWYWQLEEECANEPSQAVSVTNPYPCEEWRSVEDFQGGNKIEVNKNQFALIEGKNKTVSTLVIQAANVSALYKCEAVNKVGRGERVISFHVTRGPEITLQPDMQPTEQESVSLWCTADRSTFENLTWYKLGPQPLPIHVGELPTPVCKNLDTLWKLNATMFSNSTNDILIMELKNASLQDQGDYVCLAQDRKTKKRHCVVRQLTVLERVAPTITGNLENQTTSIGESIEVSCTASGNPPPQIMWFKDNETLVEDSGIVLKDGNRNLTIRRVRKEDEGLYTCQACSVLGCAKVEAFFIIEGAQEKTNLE

As usually defined, the EC50 (read off the curve) is the concentration at which the effect is half-maximal. With “Galectin-1 (human recombinant Gal1) (from UniProt P09382 2-135) (ligand)”, the EC50 (read off the curve) is 7 µM.
